The source of these data is the supplement of paper PMC11246515.

± gives the standard deviation of the averaged measurements. Where only a bound is given, the exact number is not on record here.

The data set is described as follows: total protein half-life in vivo (active degradation + dilution); higher = more stable protein.
The mark [1] stands for this setting: E. coli NCM3722 delta-clpP delta-lon delta-hslV, growth: N-lim chemostat, doubling time 6 h.
[2] abbreviates: wild type E. coli NCM3722, growth: C-lim chemostat, doubling time 3 h.
Setting [3] is: wild type E. coli NCM3722, growth: C-lim chemostat, doubling time 6 h.
[4] abbreviates: wild type E. coli NCM3722, growth: C-lim chemostat, doubling time 12 h.
Where [5] appears, read: E. coli NCM3722 delta-hslV, growth: N-lim chemostat, doubling time 6 h.
Setting [6] is: E. coli NCM3722 delta-smpB, growth: N-lim chemostat, doubling time 6 h.
Setting [7] is: wild type E. coli NCM3722, growth: N-lim chemostat, doubling time 6 h.
The mark [8] stands for this setting: wild type E. coli NCM3722, growth: N-lim chemostat, doubling time 12 h.
Setting [9] is: wild type E. coli NCM3722, growth: P-lim chemostat, doubling time 6 h.
Setting [10] is: wild type E. coli NCM3722, growth: P-lim chemostat, doubling time 12 h.
[11] abbreviates: E. coli NCM3722 delta-lon, growth: N-lim chemostat, doubling time 6 h.
Where [12] appears, read: E. coli NCM3722 delta-clpP, growth: N-lim chemostat, doubling time 6 h.

Consider “MNTIASVTLPHHVHAPRYDRQQLQSRIVHFGFGAFHRAHQALLTDRVLNAQGGDWGICEISLFSGDQLMSQLRAQNHLYTVLEKGADGNQVIIVGAVHECLNAKLDSLAAIIEKFCEPQVAIVSLTITEKGYCIDPATGALDTSNPRIIHDLQTPEEPHSAPGILVEALKRRRERGLTPFTVLSCDNIPDNGHVVKNAVLGMAEKRSPELAGWIKEHVSFPGTMVDRIVPAATDESLVEISQHLGVNDPCAISCEPFIQWVVEDNFVAGRPAWEVAGVQMVNDVLPWEEMKLRMLNGSHSFLAYLGYLSGFAHISDCMQDRAFRHAARTLMLDEQAPTLQIKDVDLTQYADKLIARFANPALKHKTWQIAMDGSQKLPQRMLAGIRIHQGRETDWSLLALGVAGWMRYVSGVDDAGNAIDVRDPLSDKIRELVAGSSSEQRVTALLSLREVFGDDLPDNPHFVQAIEQAWQQIVQFGAHQALLNTLKI”, for which the “total protein half-life in vivo” value by setting is: under setting [1], 5.54 ± 0.38 h; under setting [2], 0.36 ± 0.057 h; under setting [3], 0.863 h; under setting [4], 0.917 h.
With “MNNMFEPPKNYNEMLPKLHKATFLNTLIYCILLVIYEYIPLITLPTKYVPPIKDHESFINWALSFGILPCAFAIFAYLISGALDLHNNAAKLLRVRYLWDKHLIIKPLSRRAGVNRKLNKDEAHNVMSNLYYPEVRKIEDKHYIELFWNKVYYFWIFFEFSIIALISFLIIFFCKQMDIFHVEGSLLSLFFFVILSFSVSGIIFALTVKPRTESQVGKIPDDKIKEFFTKNNIN”, the “total protein half-life in vivo” value reads like this: under setting [1], 5.36 h; under setting [5], 4.62 h; under setting [6], 5.48 ± 0.069 h; under setting [2], 2.94 h; under setting [3], 4.97 ± 0.76 h; under setting [4], 10.6 ± 0.83 h. For the same sequence, the “total protein half-life in vivo” value by setting is: under setting [7], 5.04 h; under setting [8], 7.86 h; under setting [9], 5.56 ± 0.71 h; under setting [10], 11.3 ± 1.6 h.
In the case of “MRTRHLVGLISGVLILSVLLPVGLSIWLAHQQVETSFIEELDTYSSRVAIRANKVATQGKDALQELERWQGAACSEAHLMEMRRVSYSYRYIQEVAYIDNNVPQCSSLEHESPPDTFPEPGKISKDGYRVWLTSHNDLGIIRYMVAMGTAHYVVMIDPASFIDVIPYSSWQIDAAIIGNAHNVVITSSDEIAQGIITRLQKTPGEHIENNGIIYDILPLPEMNISIITWASTKMLQKGWHRQVFIWLPLGLVIGLLAAMFVLRILRRIQSPHHRLQDAIENRDICVHYQPIVSLANGKIVGAEALARWPQTDGSWLSPDSFIPLAQQTGLSEPLTLLIIRSVFEDMGDWLRQHPQQHISINLESPVLTSEKIPQLLRDMINHYQVNPRQIALELTEREFADPKTSAPIISRYREAGHEIYLDDFGTGYSSLSYLQDLDVDILKIDKSFVDALEYKNVTPHIIEMAKTLKLKMVAEGIETSKQEEWLRQHGVHYGQGWLYSKALPKEDFLRWAEQHL”, the “total protein half-life in vivo” value is 6.97 ± 0.34 h under setting [1]; 5.64 ± 0.36 h under setting [5]; 5.57 ± 1.2 h under setting [11]; 6.12 ± 0.67 h under setting [6]; 3.21 ± 0.33 h under setting [2]; 6 ± 0.23 h under setting [7]. Further, the “total protein half-life in vivo” value runs as follows: under setting [8], 12.2 ± 0.44 h; under setting [9], 6.32 ± 0.94 h; under setting [10], 12.6 ± 0.13 h.
Turning to “MSESLRIIFAGTPDFAARHLDALLSSGHNVVGVFTQPDRPAGRGKKLMPSPVKVLAEEKGLPVFQPVSLRPQENQQLVAELQADVMVVVAYGLILPKAVLEMPRLGCINVHGSLLPRWRGAAPIQRSLWAGDAETGVTIMQMDVGLDTGDMLYKLSCPITAEDTSGTLYDKLAELGPQGLITTLKQLADGTAKPEVQDETLVTYAEKLSKEEARIDWSLSAAQLERCIRAFNPWPMSWLEIEGQPVKVWKASVIDTATNAAPGTILEANKQGIQVATGDGILNLLSLQPAGKKAMSAQDLLNSRREWFVPGNRLV”, the “total protein half-life in vivo” value runs as follows: under setting [1], 5.19 ± 0.35 h; under setting [12], 4.68 ± 0.25 h; under setting [5], 5.38 ± 1 h; under setting [11], 6.55 ± 0.13 h; under setting [6], 4.49 ± 0.29 h; under setting [2], 3.118 ± 0.012 h. Besides, the “total protein half-life in vivo” value came out at 5.91 ± 0.49 h under setting [3]; 8.28 ± 1.2 h under setting [4]; 4.84 ± 0.38 h under setting [7]; 7.62 ± 0.9 h under setting [8]; 5.62 ± 0.28 h under setting [9]; 10.1 ± 0.96 h under setting [10].
Take “MESLMPWDARDTMSLRTEFVLFASQDGANIRSLCRRFGISPATGYKWLQRWAQEGAAGLQDRPRIPHHSPNRSSDDITALLRMAHDRHERWGARKIKRWLEDQGHTMPAFSTVHNLMARHGLLPGASPGIPATGRFEHDAPNRLWQMDFKGHFPFGGGRCHPLTLLDDHSRFSLCLAHCTDERRETVQQQLVSVFERYGLPDRMTMDNGSPWGDTTGTWTALELWLMRLGIRVGHSRPYHPQTQGKLERFHRSLKAEVLQGKWFADSGELQRAFDHWRTVYNLERPHEALDMAVPGSRYQPSARQYSGNTTPPEYDEGVMVRKVDISGKLSVKGVSLSAGKAFRGERVGLKEMQEDGSYEVWWYSTKVGVIDLKKKSITMGKGC”: the “total protein half-life in vivo” value under setting [1] came to 3.5 ± 0.88 h; the “total protein half-life in vivo” value under setting [12] is 3.06 h; the “total protein half-life in vivo” value under setting [3] came out at 2.18 h; the “total protein half-life in vivo” value under setting [4] stood at 5.67 h; the “total protein half-life in vivo” value under setting [8] worked out at 4.45 h.
Take “MSELLSFALFLASVLIYAWKAGRNTWWFAATLTVLGLFVVLNITLFASDYFTGDGINDAVLYTLTNSLTGAGVSKYILPGIGIVLGLTAVFGALGWILRRRRHHPHHFGYSLLALLLALGSVDASPAFRQITELVKSQSRDGDPDFAAYYKEPSKTIPDPKLNLVYIYGESLERTYFDNEAFPDLTPELGALKNEGLDFSHTQQLPGTDYTIAGMVASQCGIPLFAPFEGNASASVSSFFPQNICLGDILKNSGYQNYFVQGANLRFAGKDVFLKSHGFDHLYGSEELKSVVADPHYRNDWGFYDDTVLDEAWKKFEELSRSGQRFSLFTLTVDTHHPDGFISRTCNRKKYDFDGKPNQSFSAVSCSQENIATFINKIKASPWFKDTVIVVSSDHLAMNNTAWKYLNKQDRNNLFFVIRGDKPQQETLAVKRNTMDNGATVLDILGGDNYLGLGRSSLSGQSMSEIFLNIKEKTLAWKPDIIRLWKFPKEMKEFTIDQQKNMIAFSGSHFRLPLLLRVSDKRVEPLPESEYSAPLRFQLADFAPRDNFVWVDRCYKMAQLWAPELALSTDWCVSQGQLGGQQIVQHVDKTTWQGKTAFKDTVIDMARYKGNVDTLKIVDNDIRYKADSFIFNVAGAPEEVKQFSGISRPESWGRWSNAQLGDEVKIEYKHPLPKKFDLVITAKAYGNNASRPIPVRVGNEEQTLVLGNEVTTTTLHFDNPTDADTLVIVPPEPVSTNEGNILGHSPRKLGIGMVEIKVVEREG”: the “total protein half-life in vivo” value is 4.02 ± 0.17 h under setting [1]; 2.98 ± 0.2 h under setting [12]; 3.42 ± 0.56 h under setting [5]; 4.63 ± 0.46 h under setting [11]; 3.47 ± 0.035 h under setting [6]; 2.17 ± 0.05 h under setting [2]. Further, the “total protein half-life in vivo” value under setting [3] was determined as 2.99 ± 0.12 h, the “total protein half-life in vivo” value under setting [4] amounted to 3.93 ± 0.84 h, the “total protein half-life in vivo” value under setting [7] was 3.35 ± 0.42 h and the “total protein half-life in vivo” value under setting [8] came to 4.45 ± 0.4 h.
As to “MKDVVIVGALRTPIGCFRGALAGHSAVELGSLVVKALIERTGVPAYAVDEVILGQVLTAGAGQNPARQSAIKGGLPNSVSAITINDVCGSGLKALHLATQAIQCGEADIVIAGGQENMSRAPHVLTDSRTGAQLGNSQLVDSLVHDGLWDAFNDYHIGVTAENLAREYGISRQLQDAYALSSQQKARAAIDAGRFKDEIVPVMTQSNGQTLVVDTDEQPRTDASAEGLARLNPSFDSLGSVTAGNASSINDGAAAVMMMSEAKARALNLPVLARIRAFASVGVDPALMGIAPVYATRRCLERVGWQLAEVDLIEANEAFAAQALSVGKMLEWDERRVNVNGGAIALGHPIGASGCRILVSLVHEMVKRNARKGLATLCIGGGQGVALTIERDE”, the “total protein half-life in vivo” value runs as follows: under setting [1], 5.29 ± 0.14 h; under setting [2], 1.35 ± 0.2 h; under setting [3], 2.66 ± 0.38 h; under setting [4], 3.57 ± 0.4 h; under setting [9], 0.858 h; under setting [10], 2 ± 0.37 h.
In the case of “MMSFQKIYSPTQLANAMKLVRQQNGWTQSELAKKIGIKQATISNFENNPDNTTLTTFFKILQSLELSMTLCDAKNASPESTEQQNLEW”, the “total protein half-life in vivo” value worked out at 11.7 h under setting [4], 4.64 h under setting [7] and 12 ± 0.84 h under setting [10].
Consider “MKEVEKNEIKRLSDRLDAIRHQQADLSLVEAADKYAELEKEKATLEAEIARLREVHSQKLSKEAQKLMKMPFQRAITKKEQADMGKLKKSVRGLVVVHPMTALGREMGLQEMTGFSKTAF [P0ADK8]”, for which the “total protein half-life in vivo” value runs as follows: under setting [1], 6.16 ± 1.2 h; under setting [12], 4.37 ± 0.35 h; under setting [5], 4.65 ± 0.78 h; under setting [11], 5.34 ± 1.4 h; under setting [6], 4.26 ± 0.64 h; under setting [3], > 8 h. The “total protein half-life in vivo” value was determined as 9.91 ± 3.4 h under setting [4]; 3.91 ± 0.96 h under setting [7]; 6.76 ± 1.6 h under setting [8]; 3.5 ± 0.53 h under setting [9]; 6.29 ± 0.48 h under setting [10].
